B1: ARMS ankyrin repeats 1–11 (R1-11, residues 1–365) [rat] / Syt4 132–425 [human] (parent complex)
chain 1: MSVLISQSVINYVEEENIPALKALLEKCKDVDERNECGQTPLMLAAEQGNVEIVKELLKNGANCNLEDLDNWTALISASKEGHIHIVEELLKSGASLEHRDMGGWTALMWACYKGRTDVVELLLSHGANPSVTGLYSVYPIIWAAGRGHADIVHLLLQNGAKVNCSDKYGTTPLVWAARKGHLECVKHLLAMGADVDQEGANSMTALIVAVKGGYTQSVKEILKRNPNVNLTDKDGNTALMIASKEGHIEIVQDLLDAGTYVNIPDRSGDTVLIGAVRGGHVEIVRALLQKYADIDIRGQDNKTALYWAVEKGNATMVRDILQCNPDTEICTKDGETPLIKATKMRNIEVVELLLDKGAKVSAVD
chain 2: ESVSPESLKSSTSLTSEEKQEKLGTLFFSLEYNFERKAFVVNIKEARGLPAMDEQSMTSDPYIKMTILPEKKHKVKTRVLRKTLDPAFDETFTFYGIPYTQIQELALHFTILSFDRFSRDDIIGEVLIPLSGIELSEGKMLMNREIIKRNVRKSSGRGELLISLCYQSTTNTLTVVVLKARHLPKSDVSGLSDPYVKVNLYHAKKRISKKKTHVKKCTPNAVFNELFVFDIPCEGLEDISVEFLVLDSERGSRNEVIGQLVLGAAAEGTGGEHWKEICDYPRRQIAKWHVLCDG

Variants of: B1
Test: ITC; parent: 1.2e+04 nM

Kd [µM]	Variant
4	chain 2 R152A, chain 2 K153A
10	chain 2 R157A
19	chain 2 K148A, chain 2 R149A, chain 2 R152A
4	chain 2 R152A
3	chain 2 K153A
3	chain 2 Q55A
9	chain 2 K148A, chain 2 R149A
